Target: T1, human LILRB4 extracellular domain (ECD) recombinant protein (human, UniProt Q8NHJ6 22-259)
T1 construct: extracellular domain; also called LILRB4 ECD; LILRB4-ECD
Test: ELISA, LILRB4 recombinant protein coated, anti-human IgG F(ab)2-HRP

B1: h193 (antibody, V domains shown)
VH: EVQLVESGGGLVQPGGSLRLSCAASGFSLSSSYWISWVRQAPGKGLEWIGSIDSGSVGITYYATWVKGRFTISRDNSKNTLYLQMNSLRAEDTAVYYCARHGDNWALDLWGQGTLVTVSS
VL: DLVMTQSPSTLSASVGDRVTITCQASQSINSWLAWYQQKPGKPPKLLIYKASTLASGVSSRFSGSGSGTEFTLTISSLQPDDVATYYCQHGYIRGDLDNVFGGGTKVEIKR
Question: For B1, which “EC50 (read off the curve)” value is on record?
Answer: ~30 ng/mL

Reference: US20210371518A1 (University of Texas, published 2021)
